Measured values: US20240352128A1 (NANJING GENSCRIPT BIOTECH, published 2024)
Numbering of substitutions follows the chain as printed. One block for each binder: values may come before it.

Biological target: T1, cynomolgus monkey CD16a on HEK293 cells expressing cyno monkey CD16a (constructed by Genscript) (cynomolgus monkey, UniProt Q8SPW2 17-254)
T1 construct: whole, on cells; also called cynomolgus monkey CD16a protein
Test: flow cytometry on HEK293 cells expressing cyno monkey CD16a
Description: To determine the cross-reactions of antibody products, HEK293 cells expressing cyno monkey CD16a (constructed by Genscript) were harvested and incubated respectively with serially diluted anti-CD16a humanized sdAb-mIgG1Fcs (max. concentration: 100 nM, 3-fold dilution), followed by fluorophore (iFluor 647)-labeled goat anti mouse IgG (H+L) secondary antibodies (Jackson immuno research; catalog #: 115-605-062). The samples were then analyzed with flow cytometry. Raw data was plotted with GraphPad Prism v6.02 software with four parameters, best-fit values program to analyze the EC₅₀. The molecules of pTT5-AR8804-3.2 mIgG1Fc, pTT5-AR8804-3.3mIgG1Fc, pTT5-AR8820-1.1mIgG1Fc, pTT5-AR8820-1.2mIgG1Fc, pTT5-AR8820-1.3mIgG1Fc, pTT5-AR8820-2.1mIgG1Fc, pTT5-AR8820-2.3mIgG1Fc, pTT5-AR8820-3.1mIgG1Fc and pTT5-AR8820-3.3 mIgG1Fc manifested good cross-reaction with cynomolgus monkey CD16a protein (FIG. 13).

T1 sequence (Q8SPW2 17-254): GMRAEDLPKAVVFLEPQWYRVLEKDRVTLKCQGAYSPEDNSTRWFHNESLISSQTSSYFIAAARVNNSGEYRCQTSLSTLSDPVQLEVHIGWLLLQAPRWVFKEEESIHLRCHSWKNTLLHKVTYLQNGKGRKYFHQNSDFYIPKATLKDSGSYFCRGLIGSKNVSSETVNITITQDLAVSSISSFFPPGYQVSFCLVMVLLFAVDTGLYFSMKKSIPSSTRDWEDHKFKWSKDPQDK

B1: pTT5-AR8820-1.1mIgG1Fc (Fc fusion)
heavy: QVQLVESGGGVVQPGGSLRLSCAASGSSISRYAMAWYRQAPGKGRELVAVVRITGSPIYADFVGGRFTISRDNSKNTLYLQMNSLRAEDTAVYYCATGNFNTYTRRYSPSETWGKGTTVTVSSVPRDCGCKPCICTVPEVSSVFIFPPKPKDVLTITLTPKVTCVVVDISKDDPEVQFSWFVDDVEVHTAQTQPREEQFNSTFRSVSELPIMHQDWLNGKEFKCRVNSAAFPAPIEKTISKTKGRPKAPQVYTIPPPKEQMAKDKVSLTCMITDFFPEDITVEWQWNGQPAENYKNTQPIMDTDGSYFVYSKLNVQKSNWEAGNTFTCSVLHEGLHNHHTEKSLSHSPGK
notes: As m24
binding result: binds

B3: pTT5-AR8820-3.3 mIgG1Fc (Fc fusion)
VHH-Fc: B1 heavy with Q1E, V11L, S74A, T77S, A96N, K115Q, T118L
notes: As m24
binding result: binds

B5: pTT5-AR8820-3.1 mIgG1Fc (Fc fusion)
heavy: B1 heavy with Q1E, V11L, S74A, T77S, K115Q, T118L
notes: As m24
binding result: binds

B7: pTT5-AR8820-2.1mIgG1Fc (Fc fusion)
VHH-Fc: B1 heavy with Q1E, V11L, V12I, A49S, K115Q
notes: As m24
binding result: binds

B8: pTT5-AR8820-2.3mIgG1Fc (Fc fusion)
VHH-Fc: B1 heavy with Q1E, V11L, V12I, A49S, A96N, T97R, K115Q
notes: As m24
binding result: binds

More lines, now with the values ahead:

binding result: binds
B2: pTT5-AR8804-3.2 mIgG1Fc (Fc fusion)
heavy: B1 heavy with I29V, L47W, S56I, G64K
notes: As m24

binding result: binds
B4: pTT5-AR8820-1.2mIgG1Fc (Fc fusion)
heavy: B1 heavy with L47W
notes: As m24

binding result: binds
B6: pTT5-AR8820-1.3mIgG1Fc (Fc fusion)
heavy: B1 heavy with A96N
notes: As m24

binding result: binds
B9: pTT5-AR8804-3.3mIgG1Fc (Fc fusion)
heavy: B1 heavy with I29V, S56I, G64K, A96N
notes: As m24
